Patent publication CN110590951A (ANMENGDE MEDICAL TECH SHANGHAI CO LTD, dated 2019)

Experiments:
[1] = molecular target: T1, 重组鼠ROR1蛋白 (recombinant mouse ROR1 protein, ACROBiosystems RO1-M5221) (mouse, UniProt Q9Z139 30-403); assay: ELISA, recombinant mouse ROR1 coated at 1 μg/mL, G3 titrated from 15 μg/ml
T1 construct: Bought protein

[2] = molecular target: T2, 重组人ROR1蛋白 (recombinant human ROR1 protein, ACROBiosystems RO1-H522y) (human, UniProt Q01973 30-403); assay: ELISA, recombinant human ROR1 coated at 1 μg/mL, G3 titrated from 0.6 μg/ml
T2 construct: Bought protein
T2 sequence (Q01973 30-403 limits assumed): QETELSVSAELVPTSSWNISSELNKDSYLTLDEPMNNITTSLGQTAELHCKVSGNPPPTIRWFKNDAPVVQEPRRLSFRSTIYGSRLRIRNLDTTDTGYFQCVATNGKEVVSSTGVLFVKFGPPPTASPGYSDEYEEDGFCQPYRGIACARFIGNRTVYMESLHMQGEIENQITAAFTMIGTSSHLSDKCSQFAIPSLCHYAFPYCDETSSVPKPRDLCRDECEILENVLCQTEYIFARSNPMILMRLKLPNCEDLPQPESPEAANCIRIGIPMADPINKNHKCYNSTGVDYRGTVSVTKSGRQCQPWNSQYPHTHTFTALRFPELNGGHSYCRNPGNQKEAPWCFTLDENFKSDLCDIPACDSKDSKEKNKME

[3] = molecular target: T3, 人ROR1 on the cell surface (endogenous on JeKo-1 cells; overexpressed on CHO-K1-hROR1 cells) (human, UniProt Q01973 30-937); assay: Flow cytometry on JeKo-1 cells (endogenous ROR1), G3 titrated from 20 μg/mL
T3 construct: whole, on cells; also called JeKo-1细胞ROR1蛋白; CHO-K1-hROR1细胞表面的ROR1
T3 sequence (Q01973 30-937): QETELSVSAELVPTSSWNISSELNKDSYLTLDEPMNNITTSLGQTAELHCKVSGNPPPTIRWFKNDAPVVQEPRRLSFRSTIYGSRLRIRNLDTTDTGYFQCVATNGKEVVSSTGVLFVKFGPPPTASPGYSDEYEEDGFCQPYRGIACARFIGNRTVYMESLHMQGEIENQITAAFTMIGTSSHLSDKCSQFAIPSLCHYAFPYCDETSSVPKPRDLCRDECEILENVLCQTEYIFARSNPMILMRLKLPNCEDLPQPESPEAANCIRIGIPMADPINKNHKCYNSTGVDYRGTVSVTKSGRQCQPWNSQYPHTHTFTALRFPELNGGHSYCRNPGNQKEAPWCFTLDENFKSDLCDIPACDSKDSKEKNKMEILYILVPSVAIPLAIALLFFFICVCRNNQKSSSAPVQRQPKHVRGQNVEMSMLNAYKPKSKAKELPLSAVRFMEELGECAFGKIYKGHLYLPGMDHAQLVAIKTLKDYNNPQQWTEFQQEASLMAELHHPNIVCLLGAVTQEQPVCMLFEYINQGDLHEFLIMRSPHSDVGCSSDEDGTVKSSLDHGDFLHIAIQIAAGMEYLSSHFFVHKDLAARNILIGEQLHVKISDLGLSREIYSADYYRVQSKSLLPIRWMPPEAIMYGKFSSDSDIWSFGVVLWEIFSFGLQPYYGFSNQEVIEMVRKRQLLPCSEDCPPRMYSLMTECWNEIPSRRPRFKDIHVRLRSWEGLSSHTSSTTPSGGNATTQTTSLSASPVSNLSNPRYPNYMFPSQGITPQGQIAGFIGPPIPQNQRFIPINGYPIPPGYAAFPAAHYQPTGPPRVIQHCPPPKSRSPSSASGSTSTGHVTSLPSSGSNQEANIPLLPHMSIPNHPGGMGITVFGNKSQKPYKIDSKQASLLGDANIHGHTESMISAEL

[4] = molecular target: T4, 人ROR1蛋白卷曲(Frizzled)域 (recombinant ROR1 Frizzled domain, ACROBiosystems RO1-H5222) (human, UniProt Q01973 165-305); assay: ELISA, recombinant ROR1 Frizzled domain coated at 1 μg/mL, G3 titrated from 20 μg/ml
T4 construct: domain: 卷曲(Frizzled)域; Bought domain protein; also called 卷曲结构域; Frizzled结构域
T4 sequence (Q01973 165-305 limits assumed): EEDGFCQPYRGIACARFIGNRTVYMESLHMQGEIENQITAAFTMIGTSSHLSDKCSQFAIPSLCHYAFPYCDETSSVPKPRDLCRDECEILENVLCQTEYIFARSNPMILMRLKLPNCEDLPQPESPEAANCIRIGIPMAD

Measured: binding result

T1 sequence (Q9Z139 30-403 limits assumed): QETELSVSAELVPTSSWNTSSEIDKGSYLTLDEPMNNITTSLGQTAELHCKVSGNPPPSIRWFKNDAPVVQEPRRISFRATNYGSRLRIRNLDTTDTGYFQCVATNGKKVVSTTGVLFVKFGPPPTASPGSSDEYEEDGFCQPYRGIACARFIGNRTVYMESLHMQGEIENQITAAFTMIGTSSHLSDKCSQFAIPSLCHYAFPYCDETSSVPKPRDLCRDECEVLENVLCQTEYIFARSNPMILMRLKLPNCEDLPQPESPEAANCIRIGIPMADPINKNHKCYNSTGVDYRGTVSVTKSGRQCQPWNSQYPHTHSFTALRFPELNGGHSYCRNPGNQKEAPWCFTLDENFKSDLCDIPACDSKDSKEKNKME

B1: 抗ROR1的全人源单克隆抗体G3 (antibody, human IgG1, kappa, V domains shown)
VH: QVQLQQWGAGLLKPSETLSLTCAVYGGSFSGYYWSWIRQPPGKGLEWIGEINHSGSTSYNPSLKSRVTISVDTSKNQFSLKLSSVTAADTAVYYCARGHSSGWYRRYFDLWGRGTLVTVSS
VL: IVLTQSPATLSLSPGERATLSCRASQSVSSYLAWYQQKPGQAPRLLIYDASNRATGIPAKFSGSGSGTDFTLTISSLEPEDFAVYYCQQRSNWPPTFGGGTKVEIKR
notes: Full-length fully human IgG1/kappa, expressed in Expi-CHO-S and purified on Protein A (150 kDa); also called G3单克隆抗体; 抗人ROR1抗体G3
binds: [1] | [2] | [3] | [4]
